Experimental data taken from publication PMC5669500, “Scaffolding the cup-shaped double membrane in autophagy” (PLoS Computational Biology, 2017).

What was measured:
Test in all cases: pull-down; 20 μg GST-Atg13 (351–458) immobilised on 30 μL Glutathione Sepharose 4B; Atg17-Atg31-Atg29 complex at 10 μM; 4°C, 1 hour; 20 mM Tris pH 8, 150 mM NaCl, 0.1 mM TCEP; 3 washes; SDS-PAGE
Conditions in all cases: both partners purified
[1] = target: T1, Atg17-Atg31-Atg29 complex with Atg17 mutant M2 (K318D/K329D/Y93E/W94E) (Saccharomyces cerevisiae, UniProt Q06410 1-417; Q12421 1-196; Q12092 1-213, K318D | K329D | Y93E | W94E)
T1 construct: Atg17, Saccharomyces cerevisiae; Atg31, Saccharomyces cerevisiae; Atg29, Saccharomyces cerevisiae; a TEV cleavage site follows the His6 tag; Mutations introduced into the Atg17-Atg31-Atg29 construct by quick-change mutagenesis; source: E. coli BL21 (DE3), co-expressed from pST39, purified (Ni-NTA, Superose 6); copies: 2 + +
T1 sequence (looked up) 1: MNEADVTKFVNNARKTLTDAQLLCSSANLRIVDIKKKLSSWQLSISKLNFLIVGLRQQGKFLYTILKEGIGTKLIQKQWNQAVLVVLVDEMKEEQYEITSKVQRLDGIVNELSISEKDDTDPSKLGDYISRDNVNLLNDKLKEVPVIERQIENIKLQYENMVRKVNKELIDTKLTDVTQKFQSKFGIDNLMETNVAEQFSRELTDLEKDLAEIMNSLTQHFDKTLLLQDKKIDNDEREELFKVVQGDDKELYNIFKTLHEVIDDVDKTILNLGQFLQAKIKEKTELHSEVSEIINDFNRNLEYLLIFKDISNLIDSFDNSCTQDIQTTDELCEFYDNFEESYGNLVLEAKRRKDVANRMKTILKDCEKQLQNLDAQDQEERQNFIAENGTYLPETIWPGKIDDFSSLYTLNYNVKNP
T1 sequence (looked up) 2: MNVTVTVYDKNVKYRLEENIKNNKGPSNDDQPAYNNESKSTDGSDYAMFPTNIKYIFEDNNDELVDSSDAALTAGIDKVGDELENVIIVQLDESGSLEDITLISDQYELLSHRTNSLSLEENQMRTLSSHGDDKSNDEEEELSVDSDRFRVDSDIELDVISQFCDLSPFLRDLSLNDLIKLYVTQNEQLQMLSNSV
T1 sequence (looked up) 3: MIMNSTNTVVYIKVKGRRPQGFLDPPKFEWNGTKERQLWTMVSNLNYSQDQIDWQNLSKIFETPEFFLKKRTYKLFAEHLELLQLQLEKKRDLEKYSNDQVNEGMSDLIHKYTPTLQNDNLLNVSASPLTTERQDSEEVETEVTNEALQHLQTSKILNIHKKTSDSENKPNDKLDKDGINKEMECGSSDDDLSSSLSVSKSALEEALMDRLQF

[2] = target: T2, Atg17-Atg31-Atg29 complex with Atg17 mutant M1 (K318D/Q326D/K329D) (Saccharomyces cerevisiae, UniProt Q06410 1-417; Q12421 1-196; Q12092 1-213, K318D | Q326D | K329D)
T2 construct: Atg17, Saccharomyces cerevisiae; Atg31, Saccharomyces cerevisiae; Atg29, Saccharomyces cerevisiae; a TEV cleavage site follows the His6 tag; Mutations introduced into the Atg17-Atg31-Atg29 construct by quick-change mutagenesis; source: E. coli BL21 (DE3), co-expressed from pST39, purified (Ni-NTA, Superose 6); copies: 2 + +
T2 sequence (looked up) 1: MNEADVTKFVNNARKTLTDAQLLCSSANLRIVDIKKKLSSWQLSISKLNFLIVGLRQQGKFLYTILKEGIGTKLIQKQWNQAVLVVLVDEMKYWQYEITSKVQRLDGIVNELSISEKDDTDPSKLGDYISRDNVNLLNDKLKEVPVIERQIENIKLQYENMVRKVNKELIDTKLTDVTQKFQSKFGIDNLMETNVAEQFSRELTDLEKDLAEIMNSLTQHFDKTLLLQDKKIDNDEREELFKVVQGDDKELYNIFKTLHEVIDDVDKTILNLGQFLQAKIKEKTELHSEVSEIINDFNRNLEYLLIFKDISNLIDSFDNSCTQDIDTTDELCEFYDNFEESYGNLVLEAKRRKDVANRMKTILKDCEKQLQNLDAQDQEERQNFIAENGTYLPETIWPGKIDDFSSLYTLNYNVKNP
T2 sequence (looked up) 2: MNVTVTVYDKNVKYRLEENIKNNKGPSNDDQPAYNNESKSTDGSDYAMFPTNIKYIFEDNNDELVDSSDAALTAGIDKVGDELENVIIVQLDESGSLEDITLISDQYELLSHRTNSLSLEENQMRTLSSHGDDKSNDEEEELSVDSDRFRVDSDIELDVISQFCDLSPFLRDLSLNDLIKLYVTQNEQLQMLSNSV
T2 sequence (looked up) 3: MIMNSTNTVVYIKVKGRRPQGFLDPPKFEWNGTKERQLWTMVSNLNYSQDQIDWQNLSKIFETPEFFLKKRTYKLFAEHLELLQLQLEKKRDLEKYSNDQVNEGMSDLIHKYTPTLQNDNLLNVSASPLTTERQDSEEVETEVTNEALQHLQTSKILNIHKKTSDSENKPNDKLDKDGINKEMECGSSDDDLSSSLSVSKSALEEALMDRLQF

[3] = target: T3, Atg17-Atg31-Atg29 complex with Atg17 mutant M5 (K92D/L141D) (Saccharomyces cerevisiae, UniProt Q06410 1-417; Q12421 1-196; Q12092 1-213, K92D | L141D)
T3 construct: Atg17, Saccharomyces cerevisiae; Atg31, Saccharomyces cerevisiae; Atg29, Saccharomyces cerevisiae; a TEV cleavage site follows the His6 tag; Mutations introduced into the Atg17-Atg31-Atg29 construct by quick-change mutagenesis; source: E. coli BL21 (DE3), co-expressed from pST39, purified (Ni-NTA, Superose 6); copies: 2 + +
T3 sequence (looked up) 1: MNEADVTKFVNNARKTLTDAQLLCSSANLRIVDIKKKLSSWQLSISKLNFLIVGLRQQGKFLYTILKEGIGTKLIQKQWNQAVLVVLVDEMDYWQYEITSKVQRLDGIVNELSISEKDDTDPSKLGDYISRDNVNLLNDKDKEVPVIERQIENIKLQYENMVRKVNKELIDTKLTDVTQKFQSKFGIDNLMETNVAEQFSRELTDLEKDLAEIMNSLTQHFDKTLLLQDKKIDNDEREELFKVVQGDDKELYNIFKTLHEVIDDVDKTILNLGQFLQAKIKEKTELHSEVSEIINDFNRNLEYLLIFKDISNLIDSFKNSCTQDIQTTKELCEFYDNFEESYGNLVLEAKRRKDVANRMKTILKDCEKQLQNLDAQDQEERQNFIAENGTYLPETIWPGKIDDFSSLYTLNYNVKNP
T3 sequence (looked up) 2: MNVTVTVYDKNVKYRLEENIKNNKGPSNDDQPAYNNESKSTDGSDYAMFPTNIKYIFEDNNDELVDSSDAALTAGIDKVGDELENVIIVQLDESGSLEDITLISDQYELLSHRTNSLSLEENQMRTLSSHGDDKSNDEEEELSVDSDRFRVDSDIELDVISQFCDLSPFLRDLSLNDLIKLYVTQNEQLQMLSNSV
T3 sequence (looked up) 3: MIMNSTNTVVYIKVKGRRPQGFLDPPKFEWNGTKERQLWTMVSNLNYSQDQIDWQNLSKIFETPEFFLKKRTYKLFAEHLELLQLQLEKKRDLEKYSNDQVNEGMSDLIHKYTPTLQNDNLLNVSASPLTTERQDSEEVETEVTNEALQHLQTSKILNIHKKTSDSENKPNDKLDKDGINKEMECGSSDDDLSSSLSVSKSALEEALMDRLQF

Measured: binding result

B1: GST-Atg13 (351–458) (domain or fragment, Saccharomyces cerevisiae, UniProt Q06628 351-458, looked up)
chain: TRANSFEPQSWQKKVYPISRPVQPFKVGSIGSQSASRNPSNSSFFNQPPVHRPSMSSNYGPQMNIEGTSVGSTSKYSSSFGNIRRHSSVKTTENAEKVSKAVKSPLQP
notes: a TEV cleavage site follows the GST tag; source: recombinant from pGST2 vector, purified (Glutathione Sepharose 4B, HiLoad Superdex 200 16/60); not shown: GST, N-terminal, kept
binds: all assays above
